From US20110059889A1 (SYNTONIX PHARMACEUTICALS, published 2011)
Like-named read-outs stand apart in the source and are kept apart here. Bridge positions count the residues as written; N and C are the ends. Square brackets hold non-standard residues; d marks the D form. Ends that are not written are not given here. NMeL = CN[C@@H](CC(C)C)C(=O)O; Pen = CC(C)(S)[C@H](N)C(=O)O

Columns and labels:
[1] = target: T1, soluble human FcRn (shFcRn) (human, UniProt P55899 24-297; P61769 21-119); assay: IgG competition ELISA
T1 construct: Biotinylated for the ELISA, amine-coupled to a CM5 chip for SPR; also called biotinylated shFcRn
Experimental: (§1) The wells were coated with 100 μl/well of 1 μg/ml biotinylated-shFcRn in Buffer A. The plate was sealed and incubated at 37° C. for 2 hours. Afterwards, the plate was washed with 200 μl/well of Buffer B (Buffer B: 100 mM MES pH 6, 150 mM NaCl, 0.5% BSA IgG-free (Jackson ImmunoResearch, West Grove, Pa.), 0.05% Tween-20). […] To allow for mixing, the plate was rocked for 2 minutes, sealed and incubated at 37° C. for 2 hours. […] The plate was covered, incubated for 30 minutes at room temperature and washed 4 times with 200 μl/well of ice-cold buffer B. SureBlue TMB substrate solution (100 μl/well, KPL, Gaithersburg, Md.) was added and the plate was allowed to incubate at room temperature until color developed, which took 5 to 10 minutes. Once color developed, 100 μl/well of TMB stop solution (KPL, Gaithersburg, Md.) was added and the absorbance was measured at 450 nm. The data was plotted as absorbance vs. peptide concentration to derive the inhibitory concentration 50% (IC₅₀) values.

[2] = target: T1, soluble human FcRn (shFcRn); assay: SPR pH 6
Experimental: The following steps were performed to cross-link soluble human or cynomolgus FcRn to the dextran surface of a CM5 sensor chip (Biacore AB, Uppsala, Sweden) by an amine coupling reaction involving 1-ethyl-(3-dimethylaminopropyl)-carbodiimide hydrochloride (EDC) (Biacore AB, Uppsala, Sweden) and N-hydroxysuccinimide (NHS) (Biacore AB, Uppsala, Sweden) as recommended by Biacore (BIAapplications Handbook, version AB, section 4.2, Biacore AB, Uppsala, Sweden). […] Residual sites on the FcRn flow cell were blocked with 1 M ethanolamine hydrochloride pH 8.5 (Biacore AB, Uppsala, Sweden). A control flow cell was blocked with ethanolamine for reference subtraction. For analysis of the monomeric peptides, FcRn was coated to a final density of 4000-5000 response units (RU). For analysis of the peptide dimers, FcRn was coated to a density of 2000-2500 RU. All SPR measurements were performed using a BIACORE 3000 Instrument (Biacore AB Uppsala, Sweden). For measurements done at either pH 6 or pH 7.4, experiments were performed in 50 mM phosphate, 100 mM sodium chloride, 0.01% surfactant P20 (Biacore AB, Uppsala, Sweden).
Ten, 2-fold dilutions of the peptide were injected over the FcRn-CM5 chip at a rate of 20 μl/min for 2 min. The peptide was dissociated from the chip for 2.5 minutes with buffer. Any remaining peptide was removed from the chip with a 30 second injection of HBS-P buffer (Biacore AB, Uppsala, Sweden) at a rate of 30 μl/min. Sensorgrams were generated and analyzed using BiaEval software version 3.1 (Biacore AB, Uppsala, Sweden). The equilibrium RU observed for each injection was plotted against concentration. The equilibrium KD values were derived by analysis of the plots using the steady state affinity model included in the BiaEval software.

[3] = target: T1, soluble human FcRn (shFcRn); assay: IgG competition ELISA; remark: listed apart in the source
Experimental: as §1

[4] = target: T1, soluble human FcRn (shFcRn); assay: IgG competition ELISA; remark: listed apart in the source
Experimental: as §1

Kd [2] [µM]	IC50 [3] [µM]	Binder	further results
3.8	–	QRF[Pen]TGHF[dF]PLYPCNGP-NH2 (disulfide 4-14; N-terminus assumed; SMILES CC(C)C[C@@H]1NC(=O)[C@@H]2CCCN2C(=O)[C@@H](Cc2ccccc2)NC(=O)[C@H](Cc2ccccc2)NC(=O)[C@H](Cc2c[nH]cn2)NC(=O)CNC(=O)[C@H]([C@@H](C)O)NC(=O)[C@@H](NC(=O)[C@H](Cc2ccccc2)NC(=O)[C@H](CCCNC(=N)N)NC(=O)[C@@H](N)CCC(N)=O)C(C)(C)SSC[C@@H](C(=O)N[C@@H](CC(N)=O)C(=O)NCC(=O)N2CCC[C@H]2C(N)=O)NC(=O)[C@@H]2CCCN2C(=O)[C@H](Cc2ccc(O)cc2)NC1=O) [Peptide No. 203]	–
18.3	39	QRF[Pen]TGHF[dF]GPYPCNGP-NH2 (disulfide 4-14; N-terminus assumed; SMILES C[C@@H](O)[C@@H]1NC(=O)[C@@H](NC(=O)[C@H](Cc2ccccc2)NC(=O)[C@H](CCCNC(=N)N)NC(=O)[C@@H](N)CCC(N)=O)C(C)(C)SSC[C@@H](C(=O)N[C@@H](CC(N)=O)C(=O)NCC(=O)N2CCC[C@H]2C(N)=O)NC(=O)[C@@H]2CCCN2C(=O)[C@H](Cc2ccc(O)cc2)NC(=O)[C@@H]2CCCN2C(=O)CNC(=O)[C@@H](Cc2ccccc2)NC(=O)[C@H](Cc2ccccc2)NC(=O)[C@H](Cc2c[nH]cn2)NC(=O)CNC1=O) [Peptide No. 155]	–
0.72	5.9	QRF[Pen]TGHF[dF][dP]LYPCNGP-NH2 (disulfide 4-14; N-terminus assumed; SMILES CC(C)C[C@@H]1NC(=O)[C@H]2CCCN2C(=O)[C@@H](Cc2ccccc2)NC(=O)[C@H](Cc2ccccc2)NC(=O)[C@H](Cc2c[nH]cn2)NC(=O)CNC(=O)[C@H]([C@@H](C)O)NC(=O)[C@@H](NC(=O)[C@H](Cc2ccccc2)NC(=O)[C@H](CCCNC(=N)N)NC(=O)[C@@H](N)CCC(N)=O)C(C)(C)SSC[C@@H](C(=O)N[C@@H](CC(N)=O)C(=O)NCC(=O)N2CCC[C@H]2C(N)=O)NC(=O)[C@@H]2CCCN2C(=O)[C@H](Cc2ccc(O)cc2)NC1=O) [Peptide No. 150]	–
0.24	1.3	QRF[Pen]TGHF[dF]G[NMeL]YPCNGP-NH2 (disulfide 4-14; N-terminus assumed; SMILES CC(C)C[C@H]1C(=O)N[C@@H](Cc2ccc(O)cc2)C(=O)N2CCC[C@H]2C(=O)N[C@H](C(=O)N[C@@H](CC(N)=O)C(=O)NCC(=O)N2CCC[C@H]2C(N)=O)CSSC(C)(C)[C@H](NC(=O)[C@H](Cc2ccccc2)NC(=O)[C@H](CCCNC(=N)N)NC(=O)[C@@H](N)CCC(N)=O)C(=O)N[C@@H]([C@@H](C)O)C(=O)NCC(=O)N[C@@H](Cc2c[nH]cn2)C(=O)N[C@@H](Cc2ccccc2)C(=O)N[C@H](Cc2ccccc2)C(=O)NCC(=O)N1C) [Peptide No. 153]	–
–	21	QRF[Pen]TGHF[dP][dP]LYPCNGP-NH2 (disulfide 4-14; N-terminus assumed; SMILES CC(C)C[C@@H]1NC(=O)[C@H]2CCCN2C(=O)[C@H]2CCCN2C(=O)[C@H](Cc2ccccc2)NC(=O)[C@H](Cc2c[nH]cn2)NC(=O)CNC(=O)[C@H]([C@@H](C)O)NC(=O)[C@@H](NC(=O)[C@H](Cc2ccccc2)NC(=O)[C@H](CCCNC(=N)N)NC(=O)[C@@H](N)CCC(N)=O)C(C)(C)SSC[C@@H](C(=O)N[C@@H](CC(N)=O)C(=O)NCC(=O)N2CCC[C@H]2C(N)=O)NC(=O)[C@@H]2CCCN2C(=O)[C@H](Cc2ccc(O)cc2)NC1=O) [Peptide No. 152]	–

Second part, the binder before the results:

Binder	Kd [2] [µM]	IC50 [3] [µM]	further results
RFCTGXFGGLYPC (Pen 3; triazolylAla 6 (1,2,3-triazole side chain); Sar 9; NMeL 10; disulfide 3-13; C-terminal amide) [Peptide No. 271]	–	–	IC50 [1]: 5.7 µM
QRFCTGHFXGLYPCNGP (Pen 4; Aib 9; disulfide 4-14; C-terminal amide) [Peptide No. 54]	5.2	17	–
QRF[Pen]TGHFG[dY]LYPCNGP-NH2 (disulfide 4-14; N-terminus assumed; SMILES CC(C)C[C@@H]1NC(=O)[C@@H](Cc2ccc(O)cc2)NC(=O)CNC(=O)[C@H](Cc2ccccc2)NC(=O)[C@H](Cc2c[nH]cn2)NC(=O)CNC(=O)[C@H]([C@@H](C)O)NC(=O)[C@@H](NC(=O)[C@H](Cc2ccccc2)NC(=O)[C@H](CCCNC(=N)N)NC(=O)[C@@H](N)CCC(N)=O)C(C)(C)SSC[C@@H](C(=O)N[C@@H](CC(N)=O)C(=O)NCC(=O)N2CCC[C@H]2C(N)=O)NC(=O)[C@@H]2CCCN2C(=O)[C@H](Cc2ccc(O)cc2)NC1=O) [Peptide No. 45]	1.5	–	–
QRF[Pen]TGHF[dR]GLYPCNGP-NH2 (disulfide 4-14; N-terminus assumed; SMILES CC(C)C[C@@H]1NC(=O)CNC(=O)[C@@H](CCCNC(=N)N)NC(=O)[C@H](Cc2ccccc2)NC(=O)[C@H](Cc2c[nH]cn2)NC(=O)CNC(=O)[C@H]([C@@H](C)O)NC(=O)[C@@H](NC(=O)[C@H](Cc2ccccc2)NC(=O)[C@H](CCCNC(=N)N)NC(=O)[C@@H](N)CCC(N)=O)C(C)(C)SSC[C@@H](C(=O)N[C@@H](CC(N)=O)C(=O)NCC(=O)N2CCC[C@H]2C(N)=O)NC(=O)[C@@H]2CCCN2C(=O)[C@H](Cc2ccc(O)cc2)NC1=O) [Peptide No. 49]	–	4.1	–
QRF[Pen]TGHF[dA][dA]LYPCNGP-NH2 (disulfide 4-14; N-terminus assumed; SMILES CC(C)C[C@@H]1NC(=O)[C@@H](C)NC(=O)[C@@H](C)NC(=O)[C@H](Cc2ccccc2)NC(=O)[C@H](Cc2c[nH]cn2)NC(=O)CNC(=O)[C@H]([C@@H](C)O)NC(=O)[C@@H](NC(=O)[C@H](Cc2ccccc2)NC(=O)[C@H](CCCNC(=N)N)NC(=O)[C@@H](N)CCC(N)=O)C(C)(C)SSC[C@@H](C(=O)N[C@@H](CC(N)=O)C(=O)NCC(=O)N2CCC[C@H]2C(N)=O)NC(=O)[C@@H]2CCCN2C(=O)[C@H](Cc2ccc(O)cc2)NC1=O) [Peptide No. 148]	0.45	–	–
QRF[Pen]TGHWGGLYPCNGP-NH2 (disulfide 4-14; N-terminus assumed; SMILES CC(C)C[C@@H]1NC(=O)CNC(=O)CNC(=O)[C@H](Cc2c[nH]c3ccccc23)NC(=O)[C@H](Cc2c[nH]cn2)NC(=O)CNC(=O)[C@H]([C@@H](C)O)NC(=O)[C@@H](NC(=O)[C@H](Cc2ccccc2)NC(=O)[C@H](CCCNC(=N)N)NC(=O)[C@@H](N)CCC(N)=O)C(C)(C)SSC[C@@H](C(=O)N[C@@H](CC(N)=O)C(=O)NCC(=O)N2CCC[C@H]2C(N)=O)NC(=O)[C@@H]2CCCN2C(=O)[C@H](Cc2ccc(O)cc2)NC1=O) [Peptide No. 95]	–	–	IC50 [4]: 26 µM
QRF[Pen]TGHF[dF]GLYPCNGP-NH2 (disulfide 4-14; N-terminus assumed; SMILES CC(C)C[C@@H]1NC(=O)CNC(=O)[C@@H](Cc2ccccc2)NC(=O)[C@H](Cc2ccccc2)NC(=O)[C@H](Cc2c[nH]cn2)NC(=O)CNC(=O)[C@H]([C@@H](C)O)NC(=O)[C@@H](NC(=O)[C@H](Cc2ccccc2)NC(=O)[C@H](CCCNC(=N)N)NC(=O)[C@@H](N)CCC(N)=O)C(C)(C)SSC[C@@H](C(=O)N[C@@H](CC(N)=O)C(=O)NCC(=O)N2CCC[C@H]2C(N)=O)NC(=O)[C@@H]2CCCN2C(=O)[C@H](Cc2ccc(O)cc2)NC1=O) [Peptide No. 52]	0.51	2.8	–
QRF[Pen]TGHF[dP]GLYPCNGP-NH2 (disulfide 4-14; N-terminus assumed; SMILES CC(C)C[C@@H]1NC(=O)CNC(=O)[C@H]2CCCN2C(=O)[C@H](Cc2ccccc2)NC(=O)[C@H](Cc2c[nH]cn2)NC(=O)CNC(=O)[C@H]([C@@H](C)O)NC(=O)[C@@H](NC(=O)[C@H](Cc2ccccc2)NC(=O)[C@H](CCCNC(=N)N)NC(=O)[C@@H](N)CCC(N)=O)C(C)(C)SSC[C@@H](C(=O)N[C@@H](CC(N)=O)C(=O)NCC(=O)N2CCC[C@H]2C(N)=O)NC(=O)[C@@H]2CCCN2C(=O)[C@H](Cc2ccc(O)cc2)NC1=O) [Peptide No. 48]	–	5	–
QRF[Pen]TGHF[dH]GLYPCNGP-NH2 (disulfide 4-14; N-terminus assumed; SMILES CC(C)C[C@@H]1NC(=O)CNC(=O)[C@@H](Cc2c[nH]cn2)NC(=O)[C@H](Cc2ccccc2)NC(=O)[C@H](Cc2c[nH]cn2)NC(=O)CNC(=O)[C@H]([C@@H](C)O)NC(=O)[C@@H](NC(=O)[C@H](Cc2ccccc2)NC(=O)[C@H](CCCNC(=N)N)NC(=O)[C@@H](N)CCC(N)=O)C(C)(C)SSC[C@@H](C(=O)N[C@@H](CC(N)=O)C(=O)NCC(=O)N2CCC[C@H]2C(N)=O)NC(=O)[C@@H]2CCCN2C(=O)[C@H](Cc2ccc(O)cc2)NC1=O) [Peptide No. 50]	–	3.6	–
RFCTGXFGGLYPC (Pen 3; Thz(Me) 6 (N-methyl-thiazolium); Sar 9; NMeL 10; disulfide 3-13; C-terminal CONH2) [Peptide No. 269]	–	–	IC50 [1]: 2.4 µM
QRFCTGXFGGLYPCNGP (Pen 4; Thz 7; disulfide 4-14; C-terminal amide) [Peptide No. 91]	–	–	IC50 [1]: 44 µM
RFCTGXFGGLYPC (Pen 3; PropargylGly 6; Sar 9; NMeLeu 10; disulfide 3-13; C-terminal amide) [Peptide No. 261]	–	–	IC50 [1]: 160 µM
